# The nanobody polyreactivity screen of Harvey et al. (2022)
# Test: yeast display, Sf9 membrane polyspecificity reagent, FACS + sequencing; frameworks hold sequencing errors
# How it was run: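 After 36–48 hours of galactose induction, yeast (Saccharomyces cerevisiae BJ5465) displaying a synthetic nanobody library were stained at 4 °C for 1 hour with 10% biotinylated, detergent-solubilized Sf9 membrane reagent. Streptavidin microbeads enriched the stained cells before FACS sorting into low and high (top ~1%) gates on anti-HA and streptavidin fluorescence. Each clone's polyreactivity label reflects its gate of origin.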
row,Sequence,polyreactivity (PSR sort gate)
1,QVQLVESGGGLVQAGGSLRLSCAASGSTFGHYAMRSYRQAPGKERQLVAGITDTDNHELRRLCEGRFTISRDNAKNTVYLQMNSLKPEDTAVYDCDAGSNAVFYDYGYWGQGTQVTVSS,low polyreactivity
2,QVQLVESGGGLVQAGGSLRLSCAASGSTFGHYVMGWYRQAPGKERELVAVISSSGGRTYYADSVKGRFTISRDNAKNTVYLQMNSLKPEDTAVYYCAAGSISTPGRGVDKPDPYDYWGQGTQVTVSS,low polyreactivity
3,QVQLVESGGGLVQAGGSLRLSCAASGSTFGINAMGWYRQAPGKERDLVAAISSRGGSTYYADSVKGRFTISRDNAKNTVYLLMNSLKPEDTAVYYCAAEFAVSFYWSWLGQDYYYWGQGTQVTVSS,high polyreactivity
4,QVQLVESGGGLVQAGGSLRLSCAASGSTFGINAMGWYRQAPGKERELVARISTGVRTYYADSVKGRFTISRDNAKNTVYLQMNSLKPEDTAVYYCAAVYYRGVDRAILSYRYYYWGQGTQVTVSS,high polyreactivity
5,QVQLVESGGGLVQAGGSLRLSCAASGSTFGINTMGWYRQAPGKERELVATISQRGTRTYYADSVKGRFTISRDNAKNTVYLQMNSLKPEDTAVYYCNKDVYLYYYTRRSGRLDYWGQGTQVTVSS,high polyreactivity
6,QVQLVESGGGLVQAGGSLRLSCAASGSTFGIYAMGWYRQAPGKERELVAAISWRGGRTYYADSVKGRFTISRDNAKNTVYLQMNSLKPEDTAVYYCAADYRYLWEGYDYWGQGTQVTVSS,low polyreactivity
7,QVQLVESGGGLVQAGGSLRLSCAASGSTFGKNAMAWYRQAPGKERELVAAITSSGGRTYYADSVKGRFTISRDNAKNTVYLQMNSLKPEDTAVYYCNSVTRRRSLGPWPVEYDYWGQGTQVTVSS,high polyreactivity
8,QVQLVESGGGLVQAGGSLRLSCAASGSTFGKNAMGWYRQAPGKERELVAAITSSGGRTYYADSVKGRFTISRDNAKNTVYLQMNSLKPEDTAVYYCNAVTRRRSLGPWPVEYDYWGQGTQVTVSS,high polyreactivity
9,QVQLVESGGGLVQAGGSLRLSCAASGSTFGKYAMGWSRPAPGKERELVAAITVNAGRTYYADSVKGRFTISRDNAKNTVYLQMNSLKPEDTAVYYCNADFFTIYDYWGQGTQVTVSS,high polyreactivity
10,QVQLVESGGGLVQAGGSLRLSCAASGSTFGKYAMGWYRQAPGKERELVAAISKSGGSTYYADSVKGRFTISRDNAKNTVYLQMNSLKPEDTAVYYCAADVTYGTKWAYDYWGQGTQVTVSS,high polyreactivity
11,QVQLVESGGGLVQAGGSLRLSCAASGSTFGKYAMGWYRQAPGKERELVATISWSGTSTYYADSVKGRFTISRDNAKNTVYLQMNSLKPEDTAVYYCAADSEGVGVKHIYDYWGQGTQVTVSS,low polyreactivity
12,QVQLVESGGGLVQAGGSLRLSCAASGSTFGKYAMGWYRQATGKERELVAAITNGGRTNYADSVKGRFTISRDNAMNTVYLQMNSMKPEDTAVYYCNKARYGTDDYDYWGQGTQVTVSS,low polyreactivity
13,QVQLVESGGGLVQAGGSLRLSCAASGSTFGKYTMGWYRQAPGKERELVAAISWSGGNTYYADSVKGRFTISRDNAKNTVYLQMNSLKPEDTAVYYCAAEREAYNTWFDYWGQGTQVTVSS,high polyreactivity
14,QVQLVESGGGLVQAGGSLRLSCAASGSTFGLNAMGWYRQAHGKERDVVAAITRSDITNYADSVKGRFTISRDNAKNTVYLQMNSLKPEDTAVYYCNKTPDRHRRYFGYGYWGQGTQVTVSS,low polyreactivity
15,QVQLVESGGGLVQAGGSLRLSCAASGSTFGLNAMGWYRQAPGKERELVAAITWSGASTYYADSVKGRFTISRDNAKNTVYLQMNSLKPEDTAVYYCAKDIPTDYKDVNYWGQGTQVTVSS,low polyreactivity
16,QVQLVESGGGLVQAGGSLRLSCAASGSTFGLYAMGWYRQAPGKEREFVAAITASGGRTYYADSVKGRFTISRDHAKNTVYLQMNSLKPEDTAVYYCNSRTSHYDKYGYWGQGTQVTVSS,high polyreactivity
17,QVQLVESGGGLVQAGGSLRLSCAASGSTFGLYAMGWYRQAPRKERELVAVIRWGSGRTYYADSVKGRFTISRDNAKNTVYLQMNSLKPEDTAVYYCAKDRSYGSSSKRFGYWGQGTQVTVSS,high polyreactivity
18,QVQLVESGGGLVQAGGSLRLSCAASGSTFGLYAMGWYRQEPGKERELVAAITWRASSTYYADSVKGRFTISRDNAKNTVYLQMNSLKPEDTAVYYCAATWYSRFSRGDYDYWGQGTLVTVSS,high polyreactivity
19,QVQLVESGGGLVQAGGSLRLSCAASGSTFGLYTMGWYRQAPGKARELVAVINRSGGSTYYADSVKGRFTISRDNAKNTVYLQMNSLKPEDTAVYYCAAQRAVAGGRLDYWGQGTQVTVSS,high polyreactivity
20,QVQLVESGGGLVQAGGSLRLSCAASGSTFGNNAKGWYRQAPGKERELVAAITFRGTSTYADSVKGRFTISRDYAKNTVYLQMNSLKPEDTAVYYCAAVVYFVSYRFYYWGQGTQVTVSS,high polyreactivity
21,QVQLVESGGGLVQAGGSLRLSCAASGSTFGNNAMGWYRQAPGKERELVASINWNGGSTYYADSVKGRFTISRDNAKNTVYLQMNSLKPEDTAVYYCADDRVWAYWTYGYWGQGTQVTVSS,low polyreactivity
22,QVQLVESGGGLVQAGGSLRLSCAASGSTFGNYAMAWYRQAPGKERELVATISRSGGSTYYADSVKGRFTISRDNAKNTVYLLMNSLKPEDTAVYYCNRRYYTRKPDYNSWGQGTQVTVSS,high polyreactivity

row,Sequence,polyreactivity (PSR sort gate)
1,QVQLVESGGGLVQAGGSLRLSCAASGSTFGNYDIGWYRQAPGKERELVAAISFSGGSTYYADSVKGRFTISRDNAKNTVYLQMNSLIPEDTAVYYCAARSNYRMDYWGQGTQVTVSS,high polyreactivity
2,QVQLVESGGGLVQAGGSLRLSCAASGSTFGPNAMGWYRQAPGKERELVAAITDSGVSTYYAVSVKGRFTISRDNAKYTVYLQMNSLKPEDTAVYYCATDWYLHRFDYWGQGTQVTVSS,low polyreactivity
3,QVQLVESGGGLVQAGGSLRLSCAASGSTFGPNAMGWYRQAPGKERELVATISSGGSTYYADSVKGRFTISRDNAKNTVYLQMNSLKPEDTAVYYCAVRTIIRPVDLYDYWGQGTQVTVSS,low polyreactivity
4,QVQLVESGGGLVQAGGSLRLSCAASGSTFGPNGMGWYRHAPGKERELVARIDRIGGGTYYADSVKGRFTISRDNANNTVYLQMNSLKPEDTAVYYCAAYGPSPFSQGYAKGDYWGQGTQVTVSS,low polyreactivity
5,QVQLVESGGGLVQAGGSLRLSCAASGSTFGPYAMGWYRQAPGKERELVAAIDKSGGSTYYADSVKGRFTISRDNAKNTVYLQMNSLKPEDTAVYYCAVEKRYPRRRYDYWGQGTQVTVSS,low polyreactivity
6,QVQLVESGGGLVQAGGSLRLSCAASGSTFGPYARGWSRQAPGKERELVSTITRNGGSTYYADSVKGRFTISRDNAKNTVYLQMNSLKPEDTAVYYCNAEGRWSSFTQRMDYWGQGTQVTVSS,low polyreactivity
7,QVQLVESGGGLVQAGGSLRLSCAASGSTFGPYTMGWYRQAPGKERELVAAISYSGASTYYADSVKGRFTISRDNAKNTVYLQMNSLKPEDTAVYYCNTVYRYTRARYPYDYWGQGTQVTVSS,high polyreactivity
8,QVQLVESGGGLVQAGGSLRLSCAASGSTFGQYAMGWYRQAPGKERELVAAISSGGRTNYADSVKGRFTISRDNAKNTVYLQMNSLKPEDTAVYYCAARYYFPFRRFRRMDYWGQGTQVTVSS,high polyreactivity
9,QVQLVESGGGLVQAGGSLRLSCAASGSTFGQYAMGWYRQAPGKERELVATISSGSTYYADSVKGRFTISRDNAKNTVYLQMNSLKPEDTAVYYCAATRRWYKSKKTFYYWGQGTQVTVSS,high polyreactivity
10,QVQLVESGGGLVQAGGSLRLSCAASGSTFGRNAMGWYRQAPGKDRELVAAINSGGGTYYADSVKGRFTISRDNAKNTVYLQMNSLKPEDTAVYDCAAARGYGNYVYWGQGTQVTVSS,low polyreactivity
11,QVQLVESGGGLVQAGGSLRLSCAASGSTFGRNAMGWYRQAPGKERELVAAISWRSTPTYYADSVKGRFTISRDNAKNTVYLQMNSLKPEDTAVYYCAVYYYYPSTNGYHYDYWGHGTQVTVSS,high polyreactivity
12,QVQLVESGGGLVQAGGSLRLSCAASGSTFGRNAMGWYRQAPGKERELVASITSRGTSTYADSVKGRFTISRDNAKNTVYLQMNSLKPEDTAVYYCAAGVISYRRRSYYYWGQGTQVTVSS,high polyreactivity
13,QVQLVESGGGLVQAGGSLRLSCAASGSTFGRYAMGWSRQAPGKERELVAAITTSGRRTRYADSVKGRFTISRDNAKNTVYLQMNSLKPEDTAVYYCAASGAQGPDYDYWGQGTQVTVSS,low polyreactivity
14,QVQLVESGGGLVQAGGSLRLSCAASGSTFGRYAMGWYRQAPGKERELVAAITSGSSTNYADSVKGRFTISRDNAKNTVYLPMNSLKPEDTAVYYCAAPKSRQSTYYYWGQGTQVTVSS,high polyreactivity
15,QVQLVESGGGLVQAGGSLRLSCAASGSTFGRYTMGWYRQAPGKERQLVAAISSSGGGTYYADSVKGRLTISRDNAKNTVYLQMNSLKPEDTAVYYCAALGSRRYTRYGLTGFDYWGQGTQVTVSS,high polyreactivity
16,QVQLVESGGGLVQAGGSLRLSCAASGSTFGRYVMGLYRQAPGQERELVAAISKNAGSTYYADSVKGRFTISRDNAKNTVYLQMNSLKPEDTAVYYCAADWRTKGYDSLGQGTQVTVSS,high polyreactivity
17,QVQLVESGGGLVQAGGSLRLSCAASGSTFGRYVMGWYRQAPGKERELVAAISGSGGSTYYADSVKGRFTISRDNAKNTVYLQMNSLKPEDTAVYYCAARVAHYEYYWGQGTQVTVSS,high polyreactivity
18,QVQLVESGGGLVQAGGSLRLSCAASGSTFGRYVMGWYRQAPGKERELVAAISKNAGSTYYADSVKGRFTISRDNAKNTVYLQMNSLKPEDTAVYYCNAQSFREYGYWGQGTQVTVSS,high polyreactivity
19,QVQLVESGGGLVQAGGSLRLSCAASGSTFGSNALGWYREAPAKERELVAAIDANCGSTYYADSVKGRFTISRDNAKNTVYLQMHSQKQEDTAVYYCAAAGYCYYYVPNDYWGQGTQVTVSS,low polyreactivity
20,QVQLVESGGGLVQAGGSLRLSCAASGSTFGSNAMGGYRKAPGKERELVAAISTSGGSTYYADSVKGRFTISRDNAKNTVYLQMNSLKPEDTAVYYCNVDPAYSITYKGDYWGQGTQVSVSS,low polyreactivity
21,QVQLVESGGGLVQAGGSLRLSCAASGSTFGSNAMGWSRQAPGKERELVAAITYSGGRTYYADSVQGRFTISRDNAKNTVYLQMNSLKPEDPAVYYCAATFGFFYYQYDYWGQGTQVTVSS,low polyreactivity
